Holding throughout (conditions): both partners purified
For experiment [1], the target named is T1, cpSRP43 CD2CD3 (UniProt O22265 264-373, 15N,13C labelled where it is the observed partner in NMR).
T1 construct: cpSRP43 chromodomains 2 and 3, residues 264-373; His6-Trx is joined through a cleavable TEV site; In the crystal structure the same range stands inside the fusion m15; also called cpSRP43 CD2CD3 deletion construct; source: E. coli Rosetta2 pLysS, purified (as His6-Trx fusion with a cleavable TEV site; Superdex75)
T1 sequence (looked up): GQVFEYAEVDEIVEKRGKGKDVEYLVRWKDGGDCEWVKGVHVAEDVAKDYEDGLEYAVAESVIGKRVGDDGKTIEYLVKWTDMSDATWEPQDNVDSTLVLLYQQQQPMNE
Nature of the experiment: crystal structure; His6–Trx–CD2CD3–(GS)3–A3CT IV on one chain, 2.8 Å, two molecules in the asymmetric unit; 20% PEG 3350, 0.2 M Ca(OAc)2, 18 °C.

Experiment [2] has as its target T1, cpSRP43 CD2CD3. Nature of the experiment: SAXS; CD2CD3 alone and with 7 × molar excess of A3CT IV, 298 K.
Another experiment concerns the target T2, full-length cpSRP43 (UniProt O22265 57-373).
T2 construct: cpSRP43, the 43-kDa subunit of the chloroplast signal recognition particle (CD1, Ank1-4, CD2, CD3); called full-length in the results; the chloroplast transit peptide may be absent from the recombinant protein (surmise); also called cpSRP43 wild-type; source: E. coli Rosetta (DE3) pLysS, purified (HisTrap, size-exclusion chromatography)
The experiment can be described thus: ITC; VP-ITC, 20 °C, 20 mM Hepes (pH 7.5), 150 mM NaCl, 5 mM MgCl2, 0.25 mM TCEP; 0.01–0.1 mM in the cell, 0.1–1.0 mM in the syringe; duplicate or triplicate.

Experiment [3] deals with T3, A3CT (Alb3 C-terminal tail) produced as His6-Trx fusion for NMR (UniProt Q8LBP4 363-462, 15N,13C labelled where it is the observed partner in NMR).
T3 construct: Alb3 insertase C-terminal tail; the A3CT constructs encode residues 363-462; this one is used for all NMR rows; also called Trx–A3CT
T3 sequence (looked up): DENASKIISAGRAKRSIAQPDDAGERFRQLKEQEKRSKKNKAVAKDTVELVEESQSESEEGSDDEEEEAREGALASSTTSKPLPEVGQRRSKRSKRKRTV
The experiment can be described thus: NMR titration; 1H,15N HSQC chemical shift perturbations of the labelled partner on stepwise addition of the unlabelled ligand, 298 K, 20 mM Na-phosphate (pH 6.5), 150 mM NaCl.

Where no end group is shown, it is not given here.

Four molecules from paper PMC4660199 (Nature Communications, 2015) can be followed below.

B1: A3CT IV (residues 440–461) as joined to CD2CD3 in the fusion construct (peptide, UniProt Q8LBP4 440-461, looked up)
peptide: TTSKPLPEVGQRRSKRSKRKRT
notes: Alb3 C-terminal tail motif IV, residues 440-461; residues 453-461 are ordered in the structure, 454-KRSKRKR-460 is threaded into CD3; Stood on one chain with CD2CD3 through a (GS)3 linker; also called A3CT motif IV; motif IV; source: E. coli Rosetta2 (DE3) pLysS, purified as part of His6–Trx–CD2CD3–IV
Take B1: the binding result with cpSRP43 CD2CD3 [1] was “binds”.

B2: A3CT IV peptide (peptide, UniProt Q8LBP4 434-461, looked up)
peptide: GALASSTTSKPLPEVGQRRSKRSKRKRT
modifications: also: 15N,13C labelled where it is the observed NMR partner
notes: Alb3 C-terminal 28 residues including motif IV, residues 434-461 (holds 454-KRSKRKR-460); The ITC methods also say that peptides were purchased from PSL; also called A3CT motif IV; motif IV; source: E. coli BL21, purified (His6-GST fusion, TEV cleavage, HisTrap, Superdex75); not shown: His6, N-terminal, cleaved; GST, N-terminal, cleaved
On to B2, for which the binding result in the experiment with cpSRP43 CD2CD3 [2] is given as “binds”.

B3: A3CT motif II peptide (peptide)
chain: IISAGRAKRSI
modifications: The exact ends of the peptide are not printed. 369-379 is the region the text gives as including motif II, so the assayed peptide may be longer. Terminal chemistry is not stated.
For B3, the affinity with full-length cpSRP43, expressed as Kd, was 150 µM.

B4: cpSRP43 CD3 (domain or fragment, UniProt O22265 316-373, looked up)
chain: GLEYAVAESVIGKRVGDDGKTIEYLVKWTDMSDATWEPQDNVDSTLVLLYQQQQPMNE
notes: Gly316 is the N-terminal residue in the CD3 constructs; also called CD3 only; cpSRP43 CD3 deletion construct; source: E. coli Rosetta2 pLysS, purified (as His6-Trx fusion with a cleavable TEV site; Superdex75); not shown: His6, N-terminal, cleaved; thioredoxin (Trx), N-terminal, cleaved
For the molecule B4, the binding result in experiment [3] is reported as “binds”.
